# Data taken from US11453711B2, “Fusion proteins of GLP-1 and GDF15 and conjugates thereof” (BEIJING QL BIOPHARMACEUTICAL CO., LTD., priority 2019, dated 2022).
# Where a chain is given by its changes, count along the chain named.
# B1: MLC017: fusion polypeptide SEQ ID NO: 264 conjugated with Moiety A at 55K of Linker (conjugate)
# chain: HGEGTFTSDVSSYLEEQAAREFIAWLVRGGGGQEPGAQPGQEPGAQPGQEPGAQPGQEPGAQPGQEPGAQPGQEPGAQPGAQPGAKPGAQPGAQPGAQPGAQPGAQPGAQPARQGDHCPLGPGRCCRLHTVRASLEDLGWADWVLSPREVQVTMCIGACPSQFRAANLHAQIKTSLHRLRPDTVPAPCCVPASYNPMVLIQRTDTGVSLQTYDDLLARDCHCI
# modifications: Moiety A conjugated at linker K55
# B2: MLC081: fusion polypeptide SEQ ID NO: 374 conjugated with Moiety C at 35C of Linker (conjugate)
# chain: B1 chain with R20K, E66C, A81Q, Q82E, K86Q, R180K, R202K, R218K
# modifications: Moiety C conjugated at linker Cys35
# B3: MLC084: fusion polypeptide SEQ ID NO: 376 conjugated with Moiety C at 39C of Linker (conjugate)
# chain: B1 chain with R20K, A69Q, Q70C, K86Q, R180K, R202K, R218K
# modifications: Moiety C conjugated at linker Cys39
# B4: MLC083: fusion polypeptide SEQ ID NO: 376 conjugated with Moiety B at 39C of Linker (conjugate)
# chain: B1 chain with R20K, A69Q, Q70C, K86Q, R180K, R202K, R218K
# modifications: Moiety B conjugated at linker Cys39
# B5: MLC086: fusion polypeptide SEQ ID NO: 377 conjugated with Moiety C at 37C of Linker (conjugate)
# chain: B1 chain with R20K, G68C, A69Q, Q70A, K86Q, R180K, R202K, R218K
# modifications: Moiety C conjugated at linker Cys37
# B6: MLC074: fusion polypeptide SEQ ID NO: 369 conjugated with Moiety B at 41C of Linker (conjugate)
# chain: B1 chain with R20K, G72C, K86Q, R180K, R202K, R218K
# modifications: Moiety B conjugated at linker C41
# B7: MLC085: fusion polypeptide SEQ ID NO: 377 conjugated with Moiety B at 37C of Linker (conjugate)
# chain: B1 chain with R20K, G68C, A69Q, Q70A, K86Q, R180K, R202K, R218K
# modifications: Moiety B conjugated at linker Cys37
# B8: MLC075: fusion polypeptide SEQ ID NO: 369 conjugated with Moiety C at 41C of Linker (conjugate)
# chain: B1 chain with R20K, G72C, K86Q, R180K, R202K, R218K
# modifications: Moiety C conjugated at linker C41
# B9: MLC124: unconjugated GLP-1/GDF15 fusion protein, linker of at least 60 residues (protein)
# chain: HGEGTFTSDVSSYLEEQAAKEFIAWLVRGGGGQEPGAQPGQEPGAQPGQEPGAQPGQEPGAQPGQEPGAQPGQEPGAQPGAQPGAQPGAQPARQGDHCPLGPGRCCRLHTVRASLEDLGWADWVLSPREVQVTMCIGACPSQFRAANLHAQIKTSLHRLRPDTVPAPCCVPASYNPMVLIQRTDTGVSLQTYDDLLARDCHCI
# B10: MLC091: fusion polypeptide SEQ ID NO: 380 conjugated with Moiety B at 35C of Linker (conjugate)
# chain: HGEGTFTSDVSSYLEEQAAKEFIAWLVRGGGGAQPGAQPGAQPGAQPGAQPGAQPGAQPGAQPGQCPGAQPGQEPGAQPGQEPGAQPGQEPGAQPGQEPGAQPGQEPGAQPARQGDHCPLGPGRCCRLHTVRASLEDLGWADWVLSPREVQVTMCIGACPSQFRAANLHAQIKTSLHRLKPDTVPAPCCVPASYNPMVLIQKTDTGVSLQTYDDLLAKDCHCI
# modifications: Moiety B conjugated at linker Cys35
# B11: MLC087: fusion polypeptide SEQ ID NO: 378 conjugated with Moiety B at 41C of Linker (conjugate)
# chain: B10 chain with C66E, G72C
# modifications: Moiety B conjugated at linker Cys41
# B12: MLC092: fusion polypeptide SEQ ID NO: 380 conjugated with Moiety C at 35C of Linker (conjugate)
# chain: B10 chain
# modifications: Moiety C conjugated at linker Cys35
# B13: MLC088: fusion polypeptide SEQ ID NO: 378 conjugated with Moiety C at 41C of Linker (conjugate)
# chain: B10 chain with C66E, G72C
# modifications: Moiety C conjugated at linker Cys41
# B14: MLC022: unconjugated GLP-1/GDF15 fusion protein (protein)
# chain: HGEGTFTSDVSSYLEEQAAKEFIAWLVRGGGGQEPGQEPGQEPGQEPGQEPGQEPARQGDHCPLGPGRCCRLHTVRASLEDLGWADWVLSPREVQVTMCIGACPSQFRAANLHAQIKTSLHRLKPDTVPAPCCVPASYNPMVLIQKTDTGVSLQTYDDLLAKDCHCI
# Tests used:
# [1] = Body weight and food intake in C57BL/6 mice, fusion protein conjugates, 30 nmol/kg daily 10 days; type: in vivo
# Description: (§1) 10 week old male C57BL/6 mice were injected everyday subcutaneously with 15 nmol/kg of the fusion protein conjugates (i.e., MLC002, MLC 004, MLC 005, MLC 006, MLC 007, MLC 008, and MLC 009) for 14 days. Food intake and body weight were measured daily and five animals were used for each treatment group. Body weight (BW) was monitored for each individual animal, but food intake for each group animals was measured together. Day 1 and Day 14 are first day and last day of molecule dosage. % BW loss=100*(BW on Day n-BW on Day 1)/(BW on Day 1). Cumulative food intake on Day n represents sum of food intake from Day 1 to Day n. Data are indicated as mean values and standard error (SEM) or pooled values. Statistical analysis was performed by One-way ANOVA. Body weight reduction on Day 11 is calculated by −1*(% BW loss−% BW loss of vehicle group); Cumulative food intake reduction is calculated by −100*(cumulative food intake-cumulative food intake of vehicle)/cumulative food intake of vehicle.
# Data were calculated in the same way as described above. Day 1 and Day 10 are first day and last day of the administration.
# MLC014 was used as a negative control. MLC014 has an amino acid sequence of SEQ ID NO: 261, which contains a linker fused to the N terminal of GDF15, with a CRM conjugated to the lysine residue in the linker. Tirzepatide was also used as a control.
# [2] = Pharmacokinetic measurement in mouse, single sc dose 30 nmol/kg, plasma ELISA; conditions: for Cmax: read-out: Cmax (nmol/L), single sc dose 30 nmol/kg; for AUC0-24 h / Terminal t1/2 / Tmax: single sc dose 30 nmol/kg
# Description: Each fusion protein was injected subcutaneously into C57BL/6 mice (n=3/group) once and plasma samples were collected at designed time points and analyzed by ELISA method. Plasma concentrations are indicated as mean values and standard error (SEM).
# 6-8 week old male C57BL/6 mice were administrated in a single subcutaneous dose of 30 nmol/kg of the fusion protein conjugates or unconjugated fusion proteins (i.e., MLC002, MLC004, MLC005, MLC006, MLC007, MLC008, MLC009, MLC013, MLC017, MLC047, MLC074, MLC075, MLC089, MLC093, MLC003 and MLC019) (n=3/group). Plasma samples were collected pre-dose (−5 min), 0.5 hr, 1 hr, 2 hr, 4 hr, 6 hr, 8 hr, 12 hr, 24 hr, 48 hr and 72 hr after the injection. The concentrations of the fusion protein conjugates in the plasma were measured by an ELISA assay which has immunoreactivity towards both GDF15 and intact N-terminal of GLP-1. Based on the graph showing plasma concentration of each protein versus time after subcutaneous injection, the pharmacokinetic parameters (including Tmax, Cmax, T1/2, AUC) were calculated by WinNonlin software.
# [3] = Body weight and food intake in C57BL/6 mice, unconjugated fusion proteins, 30 nmol/kg daily 10 days; type: in vivo; conditions: for Body weight reduction at 30 nmol/kg (% reduction compared to vehicle)(Day11) / Cumulative food intake reduction at 30 nmol/kg (% reduction compared to vehicle)(Day11): C57 mice, 30 nmol/kg daily, Day11, unconjugated fusion proteins
# Description: as §1
# As described in the above method, a daily dose of 30 nmol/kg of the unconjugated fusion proteins (i.e., MLC100, MLC023, MLC022, MLC020, MLC003, MLC124, MLC021, MLC019, MLC102) were administered to C57BL/6 for 10 days. Data were calculated as above method. Day 1 and Day 10 are first day and last day of administration.
Molecule,Body weight reduction at 30 nmol/kg (% reduction compared to vehicle)(Day11) [1] [%],Cumulative food intake reduction at 30 nmol/kg (% reduction compared to vehicle)(Day11) [1] [%],further results
B1,25.4,52.3,Cmax [2]: 29.4 nmol/L; AUC0-24 h [2]: 0.4385 µM·h; Terminal t1/2 [2]: 11.1 h; Tmax [2]: 7.3 h
B2,21.5,39.0,
B3,20.7,36.2,
B4,21.6,50.5,
B5,24.4,34.8,
B6,20.0,39.9,Cmax [2]: 102 nmol/L; AUC0-24 h [2]: 1.8247 µM·h; Terminal t1/2 [2]: 18.0 h; Tmax [2]: 10.7 h
B7,23.8,40.1,
B8,20.7,46.2,Cmax [2]: 69.8 nmol/L; AUC0-24 h [2]: 1.2753 µM·h; Terminal t1/2 [2]: 20.4 h; Tmax [2]: 13.3 h
B9,,,"Body weight reduction at 30 nmol/kg (% reduction compared to vehicle)(Day11) [3]: 23.0%; Cumulative food intake reduction at 30 nmol/kg (% reduction compared to vehicle)(Day11) [3]: 38.0%; in vivo efficacy (food intake and body weight reduction) ([3]; unconjugated fusion proteins, 30 nmol/kg daily 10 days, by linker length): the most significant results among all the tested fusion proteins"
B10,22.7,38.1,
B11,22.7,31.8,
B12,22.2,33.9,
B13,22.4,34.8,
B14,,,Body weight reduction at 30 nmol/kg (% reduction compared to vehicle)(Day11) [3]: 10.4%; Cumulative food intake reduction at 30 nmol/kg (% reduction compared to vehicle)(Day11) [3]: 30.0%
